Test results: patent US20180105596A1 (ELSALYS BIOTECH, published 2018)

T1: recombinant His-Strep tagged human Tyro3 extracellular domain (human, UniProt Q06418 41-429)
T1 construct: also called hTyro3 ECD; full Tyro3 ECD
T1 sequence: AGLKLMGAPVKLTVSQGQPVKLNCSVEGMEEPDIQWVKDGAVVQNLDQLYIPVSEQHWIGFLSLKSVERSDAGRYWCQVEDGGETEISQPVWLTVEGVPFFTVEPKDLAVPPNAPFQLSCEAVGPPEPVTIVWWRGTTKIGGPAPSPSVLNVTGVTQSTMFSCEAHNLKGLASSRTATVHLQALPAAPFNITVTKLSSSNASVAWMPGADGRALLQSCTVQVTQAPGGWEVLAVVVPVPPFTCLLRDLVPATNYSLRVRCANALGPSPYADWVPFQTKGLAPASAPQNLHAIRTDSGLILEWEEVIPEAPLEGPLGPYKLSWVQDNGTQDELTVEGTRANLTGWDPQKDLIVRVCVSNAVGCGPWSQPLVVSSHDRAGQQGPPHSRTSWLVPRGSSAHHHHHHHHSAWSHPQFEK

T2: cynomolgus Tyro3 ECD, His-Strep tagged
T2 construct: also called cyno TYRO3 ECD 8hisstrep
T2 extracellular domain: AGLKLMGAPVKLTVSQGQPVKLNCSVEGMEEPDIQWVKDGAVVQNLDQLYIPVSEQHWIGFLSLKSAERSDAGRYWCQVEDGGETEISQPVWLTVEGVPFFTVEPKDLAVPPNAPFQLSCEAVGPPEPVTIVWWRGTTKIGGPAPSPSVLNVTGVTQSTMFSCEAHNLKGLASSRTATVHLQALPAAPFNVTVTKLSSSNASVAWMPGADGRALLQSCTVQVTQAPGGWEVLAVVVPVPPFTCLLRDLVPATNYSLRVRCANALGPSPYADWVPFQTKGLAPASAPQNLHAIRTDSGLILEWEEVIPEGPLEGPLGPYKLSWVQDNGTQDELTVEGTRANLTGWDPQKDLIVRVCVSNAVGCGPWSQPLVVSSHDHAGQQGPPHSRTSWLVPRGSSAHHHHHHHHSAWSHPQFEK


Legend:
[1] = molecular target: T1, recombinant His-Strep tagged human …; test: BLI (Octet K2), 1:1 global fit; analyte concentration of this kobs not given
Description: (§1) Affinity determinations were performed using biolayer interferometry on an Octet K2 instrument (Pall/ForteBio) equipped with anti-Human Kinetics (AHC) disposable fiber-optic biosensor tips. All experiments were conducted at 30° C. in the recommended Fortebio running buffer (PBS with 0.1% (w/v) bovine serum albumin (BSA) and 0.02% (v/v) Tween_20). This buffer was also used for dilution of ligand (here the antibody) and of the analyte (here the extra cellular domain of human Tyro3 protein). Samples in a 96-well microplates (No. Black polypropylene low binding plates, Greiner Bio-One, Frickenhausen, Germany) were agitated at 1000 rpm. […] Between measurements, the anti-human Tyro3 biosensor surfaces were regenerated by exposing them to 3 cycles of 5 sec in 10 mM glycine, pH 1.5, followed by 5 sec in PBS. Association phase was measured for 300 seconds, dissociation phase depending on the interaction for 300 seconds depending on dissociation step. All measurements were corrected for baseline drift using the double reference substraction, that is to say by subtracting a control sensor without ligand exposed to each concentration of the extra cellular domain of human Tyro3 protein and a reference well with ligand submitted to running buffer only. Affinity, association (kon) and dissociation rate constants (koff) for each antibody were calculated applying a 1:1 interaction model fitting global, Rmax linked by sensor) on the ForteBio data analysis software 9.0.

[2] = molecular target: T1, recombinant His-Strep tagged human …; test: BLI (Octet K2), IgG on AHC tips, hTyro3 ECD analyte, 1:1 global fit; KD Error 5,96E-10
Description: as §1, with “All measurements were corrected for baseline drift using the double reference substraction, that is to say by subtracting a control sensor without ligand exposed to each concentration of the extra cellular domain of human Tyro3 protein and a reference well with ligand submitted to running buffer only.” left out

[3] = molecular target: T1, recombinant His-Strep tagged human …; test: BLI (Octet K2), IgG on AHC tips, hTyro3 ECD analyte, 1:1 global fit; kon Error 1,34E+02
Description: as §1, with “All measurements were corrected for baseline drift using the double reference substraction, that is to say by subtracting a control sensor without ligand exposed to each concentration of the extra cellular domain of human Tyro3 protein and a reference well with ligand submitted to running buffer only.” left out

[4] = molecular target: T1, recombinant His-Strep tagged human …; test: BLI (Octet K2), IgG on AHC tips, hTyro3 ECD analyte, 1:1 global fit; kdis(1/s); kdis Error 1,42E-05
Description: as §1, with “All measurements were corrected for baseline drift using the double reference substraction, that is to say by subtracting a control sensor without ligand exposed to each concentration of the extra cellular domain of human Tyro3 protein and a reference well with ligand submitted to running buffer only.” left out

[5] = molecular target: T1, recombinant His-Strep tagged human …; test: sandwich ELISA, Strep-tagged hTyro3 ECD captured on StrepMAB plate, IgG 3-fold from 3 µg/mL, anti-human IgG1-HRP
Description: (§2) A double sandwich ELISA was developed. This assay consisted in measuring the binding of the anti-Tyro3 antibodies to be tested on immobilized strep-tagged entire human Tyro3 ECD captured directly on ELISA plate pre-coated with an anti-strep mAb (StrepMAB-Immo coated microplates from IBA biotech). Briefly, the 96 wells of StrepMAB-Immo coated microplate were washed three times with 300 μL of the PBS Tween 0.2% (referred as ELISA washing solution). The capture of an excess of purified strep tagged hTyro3 ECD protein was achieved by a one hour incubation at room temperature. In these experiments, 3 μg of purified protein diluted in PBS, BSA 1% (referred as ELISA diluent solution) were immobilized per well. The wells were washed three times with 300 μL of the washing solution. The non-specific binding sites on the well surface were blocked during 60 min at room temperature with 200 μL/well of blocking solution (PBS, BSA 3%). The wells were washed five times with 300 μL of the washing solution. Then, 100 μl (in duplicates) of the different concentrations of anti-Tyro3 antibodies to be tested diluted in ELISA diluent solution, were added per well and allowed to incubate during 1 hour at room temperature. An Irrelevant control IgG2656 was also added in this experiment. For anti-Tyro3 antibodies in the ScFv format, experiments were performed with 6 concentrations in duplicates (FIG. 3A). For anti-Tyro3 antibodies in the IgG format, experiments were performed with 9 concentrations in duplicates (FIG. 3B). […] For IgGs experiments, starting concentration for first dilution was 3 μg/ml and then dilutions of 3 fold in the ELISA diluent solution were performed. The wells were washed five times with 300 μL of the washing solution. […] The mix was allowed to incubated 60 min at room temperature.

[6] = molecular target: T2, cynomolgus Tyro3 ECD, His-Strep tagged; test: sandwich ELISA, Strep-tagged cynomolgus Tyro3 ECD captured on StrepMAB plate, IgG 3-fold from 3 µg/mL, anti-human IgG1-HRP
Description: [The procedure below names another species; the source lists this species under the same test.] as §2

[7] = molecular target: T1, recombinant His-Strep tagged human …; test: BLI (Octet K2), IgG on AHC tips, hTyro3 ECD analyte, 1:1 global fit; KD Error 4,35E-10
Description: as §1, with “All measurements were corrected for baseline drift using the double reference substraction, that is to say by subtracting a control sensor without ligand exposed to each concentration of the extra cellular domain of human Tyro3 protein and a reference well with ligand submitted to running buffer only.” left out

[8] = molecular target: T1, recombinant His-Strep tagged human …; test: BLI (Octet K2), IgG on AHC tips, hTyro3 ECD analyte, 1:1 global fit; kon Error 1,04E+03
Description: as §1, with “All measurements were corrected for baseline drift using the double reference substraction, that is to say by subtracting a control sensor without ligand exposed to each concentration of the extra cellular domain of human Tyro3 protein and a reference well with ligand submitted to running buffer only.” left out

[9] = molecular target: T1, recombinant His-Strep tagged human …; test: BLI (Octet K2), IgG on AHC tips, hTyro3 ECD analyte, 1:1 global fit; kdis(1/s); kdis Error 3,33E-05
Description: as §1, with “All measurements were corrected for baseline drift using the double reference substraction, that is to say by subtracting a control sensor without ligand exposed to each concentration of the extra cellular domain of human Tyro3 protein and a reference well with ligand submitted to running buffer only.” left out

kobs [1] | Kd [2] | kon [3] | koff [4] | EC50 (read off the curve) [5] | EC50 (read off the curve) [6] | Kd [7] | kon [8] | koff [9] | binding result [6] | Binder
0.00321 s⁻¹ | 73.5 nM | 29000 M⁻¹ s⁻¹ | 0.00213 s⁻¹ | ~0.03 µg/mL | ~0.01 µg/mL |  |  |  |  | IgG2710 (antibody, V domains shown, also called IGX2710) VH: EVQLVQSGADVKKPGASLTISCQASGYTFTDYWISWVRQKPGKGLEWMGVINKYASWTRYGPSFQGHVTISADRSTATAYLQWRSLEASDTAMYYCVRSGGLTSGGTIPEYYQHWGPGTLVTVSS VL: SYELTQPPSVSVSPGQTARITCSGDALPKKYAYWYQQKSGQAPVLVIYEDSKRPSGIPERFSGSSSGTMATLTISGAQVEDEADYYCYSQNPQGNYFVFGGGTKLTVL
0.00934 s⁻¹ |  |  |  | ~0.03 µg/mL |  | 39.3 nM | 122000 M⁻¹ s⁻¹ | 0.00478 s⁻¹ | binds | IgG2713 (antibody, V domains shown, also called IGX2713) VH: EVQLVQSGADVKKPGASLTISCQASGYTFTDYWISWVRQKPGKGLEWMGRISRHGSQTYYGPSFQGHVTISADRSTATAYLQWRSLEASDTAMYYCVRAGGQTSGGTIPEYYQHWGPGTLVTVSS VL: SYELTQPPSVSVSPGQTARITCSGDALPKKYAYWYQQKSGQAPVLVIYEDHKRASGIPERFSGSSSGTMATLTISGAQVEDEADYYCYSISPAGNYGVFGGGTKLTVL
